Earlier results in publication PMC2933916.

Biological target: S100B (UniProt P04271)

S100B (from UniProt P04271)
Kd: < 0.5 nM
